Experimental data from patent publication US20150203577A1 (Chugai, published 2015).
Residue numbers refer to the chain shown, from its start.

B1: H237-MB364/MRAL-k0 (antibody)
heavy: QVQLQESGPGLVKPSETLSLTCAVSGHSISHDHAWSWVRQPPGEGLEWIGFISYSGITNYNPSLQGRVTISRDNSKNTLYLQMNSLRAEDTAVYYCARSLARTTAMDYWGEGTLVTVSSAKTTPPSVYPLAPGSAAQTNSMVTLGCLVKGYFPEPVTVTWNSGSLSSGVHTFPAVLQSDLYTLSSSVTVPSSTWPSETVTCNVAHPASSTKVDKKIVPRDCGCKPCICEAKEVEDVFIFPPKPKDVLTITLTPKVTCVVVDISKDDPEVQFSWFVDDVEVHTAQTQPREEQFNSTFRSVSELPIMHQDWLNGKEFKCRVNSAAFPAPIEKTISKTKGRPKAPQVYTIPPPKEQMAKDKVSLTCMITDFFPEDITVEWQWNGQPAENYKNTQPIMDTDGSYFVYSKLNVQKSNWEAGNTFTCSVLHEGLHNHHTEKSLSHSPGK
light: not shown
notes: copies: 2 + 2
B2: H237-MB607/MRAL-k0 (antibody, mouse IgG1, kappa)
heavy: B1 heavy with E229T, A230V, K231P, V233E, D235E
light: not shown
notes: copies: 2 + 2
B3: H237-MB604/MRAL-k0 (antibody, mouse IgG1, kappa)
heavy: B1 heavy with A230V, K231P, E234D, D235W
light: not shown
notes: copies: 2 + 2
B4: H237-MB572/MRAL-k0 (antibody, mouse IgG1, kappa)
heavy: B1 heavy with E229T, A230V, K231P, V233E, E234S, D235W
light: not shown
notes: copies: 2 + 2
B5: H237-MB568/MRAL-k0 (antibody, mouse IgG1, kappa)
heavy: B1 heavy with E229T, A230V, K231P, D235S, S294H
light: not shown
notes: copies: 2 + 2
B6: H237-MB595/MRAL-k0 (antibody, mouse IgG1, kappa)
heavy: B1 heavy with A230V, K231P, D235F
light: not shown
notes: copies: 2 + 2
B7: H237-MB574/MRAL-k0 (antibody, mouse IgG1, kappa)
heavy: B1 heavy with E229T, A230V, K231P, V233E, E234S, D235S, F237E
light: not shown
notes: copies: 2 + 2
B8: H237-MB602/MRAL-k0 (antibody, mouse IgG1, kappa)
heavy: B1 heavy with A230V, K231P, V233E, E234D, D235S
light: not shown
notes: copies: 2 + 2
B9: H237-MB567/MRAL-k0 (antibody, mouse IgG1, kappa)
heavy: B1 heavy with E229T, A230V, K231P, D235S, S263M
light: not shown
notes: copies: 2 + 2
B10: H237-MB584/MRAL-k0 (antibody, mouse IgG1, kappa)
heavy: B1 heavy with E229T, A230V, K231P, V233E, E234D, D235S
light: not shown
notes: copies: 2 + 2
B11: H237-MB597/MRAL-k0 (antibody, mouse IgG1, kappa)
heavy: B1 heavy with A230V, K231P, D235S, F237D
light: not shown
notes: copies: 2 + 2
B12: H237-MB581/MRAL-k0 (antibody, mouse IgG1, kappa)
heavy: B1 heavy with E229T, A230V, K231P, E234S, D235W, F237T
light: not shown
notes: copies: 2 + 2
B13: H237-MB575/MRAL-k0 (antibody, mouse IgG1, kappa)
heavy: B1 heavy with E229T, A230V, K231P, V233E, E234S, D235S, F237T
light: not shown
notes: copies: 2 + 2
B14: H237-MB586/MRAL-k0 (antibody, mouse IgG1, kappa)
heavy: B1 heavy with E229T, A230V, K231P, E234D, D235W
light: not shown
notes: copies: 2 + 2
B15: H237-MB573/MRAL-k0 (antibody, mouse IgG1, kappa)
heavy: B1 heavy with E229T, A230V, K231P, V233E, E234S, D235S, F237D
light: not shown
notes: copies: 2 + 2
B16: H237-MB561/MRAL-k0 (antibody, mouse IgG1, kappa)
heavy: B1 heavy with E229T, A230V, K231P, V233E, D235S
light: not shown
notes: copies: 2 + 2
B17: H237-MB599/MRAL-k0 (antibody, mouse IgG1, kappa)
heavy: B1 heavy with A230V, K231P, V233E, E234S, D235F
light: not shown
notes: copies: 2 + 2
B18: H237-MB563/MRAL-k0 (antibody, mouse IgG1, kappa)
heavy: B1 heavy with E229T, A230V, K231P, D235W
light: not shown
notes: copies: 2 + 2
B19: H237-MB565/MRAL-k0 (antibody, mouse IgG1, kappa)
heavy: B1 heavy with E229T, A230V, K231P, D235S, F237E
light: not shown
notes: copies: 2 + 2
B20: H237-MB562/MRAL-k0 (antibody, mouse IgG1, kappa)
heavy: B1 heavy with E229T, A230V, K231P, D235F
light: not shown
notes: copies: 2 + 2
B21: H237-MB608/MRAL-k0 (antibody, mouse IgG1, kappa)
heavy: B1 heavy with E229T, A230V, K231P, D235E, F237D
light: not shown
notes: copies: 2 + 2
B22: H237-MB603/MRAL-k0 (antibody, mouse IgG1, kappa)
heavy: B1 heavy with A230V, K231P, E234D, D235F
light: not shown
notes: copies: 2 + 2
B23: H237-MB596/MRAL-k0 (antibody, mouse IgG1, kappa)
heavy: B1 heavy with A230V, K231P, D235W
light: not shown
notes: copies: 2 + 2
B24: H237-MB587/MRAL-k0 (antibody, mouse IgG1, kappa)
heavy: B1 heavy with E229T, A230V, K231P, E234D, D235S, F237D
light: not shown
notes: copies: 2 + 2
B25: H237-MB580/MRAL-k0 (antibody, mouse IgG1, kappa)
heavy: B1 heavy with E229T, A230V, K231P, E234S, D235W, F237E
light: not shown
notes: copies: 2 + 2
B26: H237-MB585/MRAL-k0 (antibody, mouse IgG1, kappa)
heavy: B1 heavy with E229T, A230V, K231P, E234D, D235F
light: not shown
notes: copies: 2 + 2
B27: H237-MB566/MRAL-k0 (antibody, mouse IgG1, kappa)
heavy: B1 heavy with E229T, A230V, K231P, D235S, F237T
light: not shown
notes: copies: 2 + 2
B28: H237-MB579/MRAL-k0 (antibody, mouse IgG1, kappa)
heavy: B1 heavy with E229T, A230V, K231P, E234S, D235W, F237D
light: not shown
notes: copies: 2 + 2
B29: H237-MB571/MRAL-k0 (antibody, mouse IgG1, kappa)
heavy: B1 heavy with E229T, A230V, K231P, V233E, E234S, D235F
light: not shown
notes: copies: 2 + 2
B30: H237-MB601/MRAL-k0 (antibody, mouse IgG1, kappa)
heavy: B1 heavy with A230V, K231P, V233E, E234S, D235S, F237D
light: not shown
notes: copies: 2 + 2
B31: H237-MB605/MRAL-k0 (antibody, mouse IgG1, kappa)
heavy: B1 heavy with A230V, K231P, E234D, D235S, F237D
light: not shown
notes: copies: 2 + 2
B32: H237-MB576/MRAL-k0 (antibody, mouse IgG1, kappa)
heavy: B1 heavy with E229T, A230V, K231P, E234S, D235F, F237D
light: not shown
notes: copies: 2 + 2
B33: H237-MB578/MRAL-k0 (antibody, mouse IgG1, kappa)
heavy: B1 heavy with E229T, A230V, K231P, E234S, D235F, F237T
light: not shown
notes: copies: 2 + 2
B34: H237-MB591/MRAL-k0 (antibody, mouse IgG1, kappa)
heavy: B1 heavy with E229T, A230V, K231P, E234D, D235S, S294H
light: not shown
notes: copies: 2 + 2
B35: H237-MB589/MRAL-k0 (antibody, mouse IgG1, kappa)
heavy: B1 heavy with E229T, A230V, K231P, E234D, D235S, F237T
light: not shown
notes: copies: 2 + 2
B36: H237-MB564/MRAL-k0 (antibody, mouse IgG1, kappa)
heavy: B1 heavy with E229T, A230V, K231P, D235S, F237D
light: not shown
notes: copies: 2 + 2
B37: H237-MB598/MRAL-k0 (antibody, mouse IgG1, kappa)
heavy: B1 heavy with A230V, K231P, D235S, S263M
light: not shown
notes: copies: 2 + 2
B38: H237-MB588/MRAL-k0 (antibody, mouse IgG1, kappa)
heavy: B1 heavy with E229T, A230V, K231P, E234D, D235S, F237E
light: not shown
notes: copies: 2 + 2
B39: H237-MB600/MRAL-k0 (antibody, mouse IgG1, kappa)
heavy: B1 heavy with A230V, K231P, V233E, E234S, D235W
light: not shown
notes: copies: 2 + 2
B40: H237-MB577/MRAL-k0 (antibody, mouse IgG1, kappa)
heavy: B1 heavy with E229T, A230V, K231P, E234S, D235F, F237E
light: not shown
notes: copies: 2 + 2

Tests used:
[1] = target: T1, mouse FcγRIII extracellular domain, C-terminal His tag (mouse, UniProt P08508 31-215); experiment: SPR (Biacore T200); KD of H237-mIgG1/MRAL-k0 / KD of variant
T1 construct: Whole entry named; also called mFcγRIII; mFcgRIII
T1 chain: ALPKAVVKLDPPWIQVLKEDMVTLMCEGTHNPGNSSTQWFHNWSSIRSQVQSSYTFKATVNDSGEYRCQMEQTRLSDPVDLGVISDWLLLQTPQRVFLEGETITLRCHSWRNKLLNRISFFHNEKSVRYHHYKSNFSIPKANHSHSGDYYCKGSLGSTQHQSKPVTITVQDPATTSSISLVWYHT

[2] = target: T2, mouse FcγRII extracellular domain, C-terminal His tag (mouse, UniProt P08101 30-210); experiment: as above
T2 construct: Whole entry named; also called mFcγRII; mFcgRII
T2 sequence: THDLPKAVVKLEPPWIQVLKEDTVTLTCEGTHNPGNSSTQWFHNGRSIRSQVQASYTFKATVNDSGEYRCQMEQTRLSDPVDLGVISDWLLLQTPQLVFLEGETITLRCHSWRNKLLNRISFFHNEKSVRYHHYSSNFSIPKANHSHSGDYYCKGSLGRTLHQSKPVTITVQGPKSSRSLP

| Binder | relative mFcγRIII-binding activity (mIgG1 = 1) [1] | relative mFcγRII-binding activity (mIgG1 = 1) [2] |
| --- | --- | --- |
| B1 | 1.35 fold | 6.55 fold |
| B2 | 0.18 fold | 3.14 fold |
| B3 | 0.16 fold | 0.34 fold |
| B4 | 0.07 fold | 0.26 fold |
| B5 | 0.18 fold | 0.71 fold |
| B6 | 0.05 fold | 0.09 fold |
| B7 | 0.1 fold | 0.27 fold |
| B8 | 0.05 fold | 0.26 fold |
| B9 | 0.07 fold | 0.21 fold |
| B10 | 0.02 fold | 0.08 fold |
| B11 | 0.54 fold | 1.28 fold |
| B12 | 0.42 fold | 0.69 fold |
| B13 | 0.05 fold | 0.08 fold |
| B14 | 0.08 fold | 0.13 fold |
| B15 | 0.06 fold | 0.43 fold |
| B16 | 0.07 fold | 0.48 fold |
| B17 | 0.11 fold | 0.7 fold |
| B18 | 0.08 fold | 0.2 fold |
| B19 | 0.23 fold | 0.66 fold |
| B20 | 0.02 fold | 0.05 fold |

| Binder | relative mFcγRIII-binding activity (mIgG1 = 1) [1] | relative mFcγRII-binding activity (mIgG1 = 1) [2] |
| --- | --- | --- |
| B21 | 0.13 fold | 0.42 fold |
| B22 | 0.06 fold | 0.12 fold |
| B23 | 0.17 fold | 0.55 fold |
| B24 | 0.6 fold | 1.33 fold |
| B25 | 0.61 fold | 1.38 fold |
| B26 | 0.03 fold | 0.06 fold |
| B27 | 0.1 fold | 0.18 fold |
| B28 | 0.34 fold | 0.89 fold |
| B29 | 0.05 fold | 0.22 fold |
| B30 | 0.1 fold | 0.55 fold |
| B31 | 4.4 fold | 9.85 fold |
| B32 | 0.6 fold | 1.54 fold |
| B33 | 0.25 fold | 0.39 fold |
| B34 | 0.02 fold | 0.08 fold |
| B35 | 0.19 fold | 0.23 fold |
| B36 | 0.11 fold | 0.32 fold |
| B37 | 0.08 fold | 0.41 fold |
| B38 | 1.01 fold | 2.01 fold |
| B39 | 0.25 fold | 1.24 fold |
| B40 | 1.19 fold | 2.51 fold |
